# In patent US20150361464A1, “METHODS, REAGENTS AND CELLS FOR BIOSYNTHESIZING COMPOUNDS” (INVISTA North America S.á r.l., priority 2014, published 2015):
# Tests used:
# Format in all cases: biochemical
# [1] = carboxylate reductase enzyme activity assay (5-hydroxypentanoate to 5-hydroxypentanal), NADPH consumption at 340 nm; details: purified enzyme enhanced by the gene product of sfp; 1 mM ATP, 1 mM NADPH, pH 7.5, room temperature, 20 minutes; against the empty vector control; FIG. 14
# Description: A nucleotide sequence encoding a His-tag was added to the genes from Mycobacterium marinum, Mycobacterium smegmatis, Segniliparus rugosus, Mycobacterium massiliense, and Segniliparus rotundus that encode the carboxylate reductases of SEQ ID NOs: 2-4, 6 and 7, respectively (GenBank Accession Nos. ACC40567.1, ABK71854.1, EFV11917.1, EIV11143.1, and ADG98140.1, respectively) (see FIG. 10) such that N-terminal HIS tagged carboxylate reductases could be produced. Each of the modified genes was cloned into a pET Duet expression vector alongside a sfp gene encoding a His-tagged phosphopantetheine transferase from Bacillus subtilis, both under control of the T7 promoter. Each expression vector was transformed into a BL21[DE3] E. coli host along with the expression vectors from Example 3. Each resulting recombinant E. coli strain was cultivated at 37° C. in a 250 mL shake flask culture containing 50 mL LB media and antibiotic selection pressure, with shaking at 230 rpm. Each culture was induced overnight at 37° C. using an auto-induction media. […]
# Enzyme activity (i.e., 5-hydroxypentanoate to 5-hydroxypentanal) assays were performed in triplicate in a buffer composed of a final concentration of 50 mM HEPES buffer (pH=7.5), 2 mM 5-hydroxypentanal, 10 mM MgCl2, 1 mM ATP, and 1 mM NADPH. […] The consumption of NADPH was monitored by absorbance at 340 nm. […]
# [2] = ω-transaminase enzyme activity assay, forward direction (glutarate semialdehyde to 5-aminopentanoate), cell free extract
# Description: A nucleotide sequence encoding an N-terminal His-tag was added to the genes from Chromobacterium violaceum and Rhodobacter sphaeroides encoding the ω-transaminases of SEQ ID NOs: 8 and 10 respectively (see FIG. 10) such that N-terminal HIS tagged ω-transaminases could be produced. Each of the resulting modified genes was cloned into a pET21a expression vector under control of the T7 promoter and each expression vector was transformed into a BL21[DE3] E. coli host. The resulting recombinant E. coli strains were cultivated at 37° C. in a 250 mL shake flask culture containing 50 mL LB media and antibiotic selection pressure, with shaking at 230 rpm. Each culture was induced overnight at 16° C. using 1 mM IPTG.
# (§1) The pellet from each induced shake flask culture was harvested via centrifugation. Each pellet was resuspended and lysed via sonication. The cell debris was separated from the supernatant via centrifugation and the cell free extract was used immediately in enzyme activity assays.
# Enzyme activity in the forward direction (i.e., glutarate semialdehyde to 5-aminopentanoate) was confirmed for the transaminase of SEQ ID NO: 10. Enzyme activity assays were performed in a buffer composed of a final concentration of 50 mM HEPES buffer (pH=7.5), 10 mM glutarate semialdehyde, 10 mM L-alanine and 100 μM pyridoxyl 5′ phosphate. Each enzyme activity assay reaction was initiated by adding a cell free extract of the ω-transaminase gene product or the empty vector control to the assay buffer containing the glutarate semialdehyde and incubated at 25° C. for 4 hours, with shaking at 250 rpm. The formation of pyruvate was quantified via RP-HPLC.
# [3] = ω-transaminase enzyme activity assay (cadaverine to 5-aminopentanal), cell free extract
# Description: A nucleotide sequence encoding an N-terminal His-tag was added to the Chromobacterium violaceum, Pseudomonas aeruginosa, Pseudomonas syringae, and Escherichia coli genes encoding the ω-transaminases of SEQ ID NOs: 8 to 10 and 12, respectively (see, FIG. 10) such that N-terminal HIS tagged ω-transaminases could be produced. The modified genes were cloned into a pET21a expression vector under the T7 promoter. Each expression vector was transformed into a BL21[DE3] E. coli host. Each resulting recombinant E. coli strain were cultivated at 37° C. in a 250 mL shake flask culture containing 50 mL LB media and antibiotic selection pressure, with shaking at 230 rpm. Each culture was induced overnight at 16° C. using 1 mM IPTG.
# as §1
# Enzyme activity assays in the reverse direction (i.e., cadaverine to 5-aminopentanal) were performed in a buffer composed of a final concentration of 50 mM HEPES buffer (pH=7.5), 10 mM cadaverine, 10 mM pyruvate, and 100 μM pyridoxyl 5′ phosphate. […] The formation of L-alanine was quantified via RP-HPLC.
molecule,measurement,setting,value
"SEQ ID NO: 7: Segniliparus rotundus carboxylate reductase, N-terminal HIS tagged (protein, listed as Segniliparus rotundus, N-terminal His tag, Segniliparus rotundus carboxylate reductase, N-terminal HIS tagged) MTQSHTQGPQASAAHSRLARRAAELLATDPQAAATLPDPEVVRQATRPGLRLAERVDAILSGYADRPALGQRSFQTVKDPITGRSSVELLPTFDTITYRELRERATAIASDLAHHPQAPAKPGDFLASIGFISVDYVAIDIAGVFAGLTAVPLQTGATLATLTAITAETAPTLFAASIEHLPTAVDAVLATPSVRRLLVFDYRAGSDEDREAVEAAKRKIADAGSSVLVDVLDEVIARGKSAPKAPLPPATDAGDDSLSLLIYTSGSTGTPKGAMYPERNVAHFWGGVWAAAFDEDAAPPVPAINITFLPLSHVASRLSLMPTLARGGLMHFVAKSDLSTLFEDLKLARPTNLFLVPRVVEMLYQHYQSELDRRGVQDGTREAEAVKDDLRTGLLGGRILTAGFGSAPLSAELAGFIESLLQIHLVDGYGSTEAGPVWRDGYLVKPPVTDYKLIDVPELGYFSTDSPHPRGELAIKTQTILPGYYKRPETTAEVFDEDGFYLTGDVVAQIGPEQFAYVDRRKNVLKLSQGEFVTLAKLEAAYSSSPLVRQLFVYGSSERSYLLAVIVPTPDALKKFGVGEAAKAALGESLQKIARDEGLQSYEVPRDFIIETDPFTVENGLLSDARKSLRPKLKEHYGERLEAMYKELADGQANELRDIRRGVQQRPTLETVRRAAAAMLGASAAEIKPDAHFTDLGGDSLSALTFSNFLHDLFEVDVPVGVIVSAANTLGSVAEHIDAQLAGGRARPTFATVHGKGSTTIKASDLTLDKFIDEQTLEAAKHLPKPADPPRTVLLTGANGWLGRFLALEWLERLAPAGGKLITIVRGKDAAQAKARLDAAYESGDPKLAGHYQDLAATTLEVLAGDFSEPRLGLDEATWNRLADEVDFISHPGALVNHVLPYNQLFGPNVAGVAEIIKLAITTRIKPVTYLSTVAVAAGVEPSALDEDGDIRTVSAERSVDEGYANGYGNSKWGGEVLLREAHDRTGLPVRVFRSDMILAHQKYTGQVNATDQFTRLVQSLLATGLAPKSFYELDAQGNRQRAHYDGIPVDFTAESITTLGGDGLEGYRSYNVFNPHRDGVGLDEFVDWLIEAGHPITRIDDYDQWLSRFETSLRGLPESKRQASVLPLLHAFARPGPAVDGSPFRNTVFRTDVQKAKIGAEHDIPHLGKALVLKYADDIKQLGLL","acceptance of 5-hydroxypentanoate as substrate (consumption of NADPH, absorbance at 340 nm)",[1],accepted 5-hydroxypentanoate as substrate
"SEQ ID NO: 10: Pseudomonas syringae ω-transaminase (b222 says Rhodobacter sphaeroides), N-terminal HIS tagged, cell free extract (protein, listed as Pseudomonas syringae, N-terminal His tag) MSANNPQTLEWQALSSEHHLAPFSDYKQLKEKGPRIITRAEGVYLWDSEGNKILDGMSGLWCVAIGYGREELADAASKQMRELPYYNLFFQTAHPPVLELAKAISDIAPEGMNHVFFTGSGSEGNDTMLRMVRHYWALKGQPNKKTIISRVNGYHGSTVAGASLGGMTYMHEQGDLPIPGVVHIPQPYWFGEGGDMTPDEFGIWAAEQLEKKILELGVENVGAFIAEPIQGAGGVIVPPDSYWPKIKEILSRYDILFAADEVICGFGRTSEWFGSDFYGLRPDMMTIAKGLTSGYVPMGGLIVRDEIVAVLNEGGDFNHGFTYSGHPVAAAVALENIRILREEKIVERVRSETAPYLQKRLRELSDHPLVGEVRGVGLLGAIELVKDKTTRERYTDKGAGMICRTFCFDNGLIMRAVGDTMIIAPPLVISFAQIDELVEKARTCLDLTLAVLQG","acceptance of glutarate semialdehyde as substrate (formation of pyruvate from L-alanine, RP-HPLC)","[2]; 10 mM glutarate semialdehyde, 10 mM L-alanine, pH 7.5, 25° C., 4 hours, against the empty vector control, FIG. 16",accepted glutarate semialdehyde as substrate
same,"acceptance of glutarate semialdehyde as substrate and synthesis of 5-aminopentanoate, concluded from reversibility of the ω-transaminase activity",[2]; conclusion from reverse and forward direction assays,accepted glutarate semialdehyde as substrate and synthesized 5-aminopentanoate
"SEQ ID NO: 12: Escherichia coli ω-transaminase, N-terminal HIS tagged, cell free extract (protein, listed as Escherichia coli, N-terminal His tag, Escherichia coli ω-transaminase, N-terminal HIS tagged, cell free extract) MNRLPSSASALACSAHALNLIEKRTLDHEEMKALNREVIEYFKEHVNPGFLEYRKSVTAGGDYGAVEWQAGSLNTLVDTQGQEFIDCLGGFGIFNVGHRNPVVVSAVQNQLAKQPLHSQELLDPLRAMLAKTLAALTPGKLKYSFFCNSGTESVEAALKLAKAYQSPRGKFTFIATSGAFHGKSLGALSATAKSTFRKPFMPLLPGFRHVPFGNIEAMRTALNECKKTGDDVAAVILEPIQGEGGVILPPPGYLTAVRKLCDEFGALMILDEVQTGMGRTGKMFACEHENVQPDILCLAKALGGGVMPIGATIATEEVFSVLFDNPFLHTTTFGGNPLACAAALATINVLLEQNLPAQAEQKGDMLLDGFRQLAREYPDLVQEARGKGMLMAIEFVDNEIGYNFASEMFRQRVLVAGTLNNAKTIRIEPPLTLTIEQCELVIKAARKALAAMRVSVEEA","acceptance of cadaverine as substrate (formation of L-alanine from pyruvate, RP-HPLC)","[3]; 10 mM cadaverine, 10 mM pyruvate, pH 7.5, 25° C., 4 hours, against the empty vector control, FIG. 11",accepted cadaverine as substrate
same,"acceptance of 5-aminopentanal as substrate forming cadaverine, concluded from reversibility of the ω-transaminase activity",[3]; conclusion given reversibility (Example 1),accept 5-aminopentanal as substrate and form cadaverine
"SEQ ID NO: 6: Mycobacterium massiliense carboxylate reductase, N-terminal HIS tagged (protein, N-terminal His tag; Mycobacterium massiliense, Mycobacterium massiliense carboxylate reductase, N-terminal HIS tagged) MTNETNPQQEQLSRRIESLRESDPQFRAAQPDPAVAEQVLRPGLHLSEAIAALMTGYAERPALGERARELVIDQDGRTTLRLLPRFDTTTYGELWSRTTSVAAAWHHDATHPVKAGDLVATLGFTSIDYTVLDLAIMILGGVAVPLQTSAPASQWTTILAEAEPNTLAVSIELIGAAMESVRATPSIKQVVVFDYTPEVDDQREAFEAASTQLAGTGIALETLDAVIARGAALPAAPLYAPSAGDDPLALLIYTSGSTGAPKGAMHSENIVRRWWIREDVMAGTENLPMIGLNFMPMSHIMGRGTLTSTLSTGGTGYFAASSDMSTLFEDMELIRPTALALVPRVCDMVFQRFQTEVDRRLASGDTASAEAVAAEVKADIRDNLFGGRVSAVMVGSAPLSEELGEFIESCFELNLTDGYGSTEAGMVFRDGIVQRPPVIDYKLVDVPELGYFSTDKPHPRGELLLKTDGMFLGYYKRPEVTASVFDADGFYMTGDIVAELAHDNIEIIDRRNNVLKLSQGEFVAVATLEAEYANSPVVHQIYVYGSSERSYLLAVVVPTPEAVAAAKGDAAALKTTIADSLQDIAKEIQLQSYEVPRDFIIEPQPFTQGNGLLTGIAKLARPNLKAHYGPRLEQMYAEIAEQQAAELRALHGVDPDKPALETVLKAAQALLGVSSAELAADAHFTDLGGDSLSALSFSDLLRDIFAVEVPVGVIVSAANDLGGVAKFVDEQRHSGGTRPTAETVHGAGHTEIRAADLTLDKFIDEATLHAAPSLPKAAGIPHTVLLTGSNGYLGHYLALEWLERLDKTDGKLIVIVRGKNAEAAYGRLEEAFDTGDTELLAHFRSLADKHLEVLAGDIGDPNLGLDADTWQRLADTVDVIVHPAALVNHVLPYNQLFGPNVVGTAEIIKLAITTKIKPVTYLSTVAVAAYVDPTTFDEESDIRLISAVRPIDDGYANGYGNAKWAGEVLLREAHDLCGLPVAVFRSDMILAHSRYTGQLNVPDQFTRLILSLIATGIAPGSFYQAQTTGERPLAHYDGLPGDFTAEAITTLGTQVPEGSEGFVTYDCVNPHADGISLDNFVDWLIEAGYPIARIDNYTEWFTRFDTAIRGLSEKQKQHSLLPLLHAFEQPSAAENHGVVPAKRFQHAVQAAGIGPVGQDGTTDIPHLSRRLIVKYAKDLEQLGLL","acceptance of 5-hydroxypentanoate as substrate (consumption of NADPH, absorbance at 340 nm)",[1],accepted 5-hydroxypentanoate as substrate
